Results taken from paper PMC9098913, “In vitro reconstitution of Escherichia coli divisome activation” (Nature Communications, 2022).

Assay: Diffusion coefficient of His-tagged FtsAs and His-SUMO on Tris-NTA membranes (FRAP)
Description: To study colocalization of His-tagged variants of FtsA, 0.5–1 µM of Cy5 labelled His-tagged FtsAs were added to the chamber, incubated for 20 min and washed 6x with reaction buffer. […] To control the density of membrane-bound FtsA, SUVs without and with Tris-NTA lipids were mixed to obtain the respective Tris-NTA concentrations. To perform FRET/FRAP experiments, equimolar concentrations of Cy3 and Cy5 labelled His-tagged FtsAs (total 0.5–1 µM) or His-SUMO-Cys were added to a chamber and treated as above. […] FRAP experiments were performed as described before.
Bleaching the acceptor dye leads to an increase in the donor intensity, which can be used to quantify the Foerster Resonance energy transfer (FRET)[48]. FRET efficiency was quantified with E%=Ipost/Ipost+Ipre⋅100 , where Ipost is the intensity of the […] and Ipre is the […]. […] To extract the contribution of both processes, we adjusted a routine recently published by Gerganova et al.[33]. In short, the code provides the contribution of both modes of recovery by analysing the shape of the fluorescence recovery profile. […] Contribution of diffusion leads to a change of the slope of the outer borders of the bleached region (S4h right). Thus, by measuring the change of the slope of the border recovery, diffusion and simple on/off binding can be distinguished. We developed “FRAPdiff”, a graphical user interface, which uses the original fit routine by David Rutkowski. It can be used directly on.tiff movies with annotated bleach regions as ImageJ ROIs. In addition, we added optional bleach correction, user selectable projection axis (x or y), and optional mirroring of the recovery profiles, if bleaching was not symmetric. The original fit routine for estimating the recovery and diffusion dynamics can be found at https://github.com/davidmrutkowski/1DReflectingDiffusion. FRAPdiff is available at 10.5281/zenodo.6400639[49] under the GPLv3 open-source license.

B1: FtsA R286W-His6: FtsA R286W (1-405) with amphipathic helix replaced by C-terminal His-tag (protein)
chain: MIKATDRKLVVGLEIGTAKVAALVGEVLPDGMVNIIGVGSCPSRGMDKGGVNDLESVVKCVQRAIDQAELMADCQISSVYLALSGKHISCQNEIGMVPISEEEVTQEDVENVVHTAKSVRVRDEHRVLHVIPQEYAIDYQEGIKNPVGLSGVRMQAKVHLITCHNDMAKNIVKAVERCGLKVDQLIFAGLASSYSVLTEDERELGVCVVDIGGGTMDIAVYTGGALRHTKVIPYAGNVVTSDIAYAFGTPPSDAEAIKVRHGCALGSIVGKDESVEVPSVGGRPPWSLQRQTLAEVIEPRYTELLNLVNEEILQLQEKLRQQGVKHHLAAGIVLTGGAAQIEGLAACAQRVFHTQVRIGAPLNITGLTDYAQEPYYSTAVGLLHYGKESHLNGEAEVEKRVTASV
modifications: Cy3 or Cy5 at the N-terminus in the labelled form (sortagging as for native FtsA); left off: TwinStrep-SUMO, N-terminal, cleaved | 5xGlycine tag, N-terminal, kept | His6, C-terminal, kept
0.1% Tris NTA, + FtsZ, mean (n: WT 2, R286W 3)
  Diffusion Coefficient: 0.17 µm2/s
0.1% Tris NTA, + FtsZ, replicate Exp1
  Diffusion Coefficient: 0.12 µm2/s
0.1% Tris NTA, + FtsZ, replicate Exp2
  Diffusion Coefficient: 0.17 µm2/s
0.1% Tris NTA, + FtsZ, replicate Exp3
  Diffusion Coefficient: 0.22 µm2/s
0.1% Tris NTA, without FtsZ, mean (n: WT 2, R286W 3, SUMO 2)
  Diffusion Coefficient: 0.50 µm2/s
0.1% Tris NTA, without FtsZ, replicate Exp1
  Diffusion Coefficient: 0.48 µm2/s
0.1% Tris NTA, without FtsZ, replicate Exp2
  Diffusion Coefficient: 0.53 µm2/s
0.1% Tris NTA, without FtsZ, replicate Exp3
  Diffusion Coefficient: 0.50 µm2/s
0.4% Tris NTA, + FtsZ, mean (n: WT 2, R286W 3)
  Diffusion Coefficient: 0.08 µm2/s
0.4% Tris NTA, + FtsZ, replicate Exp1
  Diffusion Coefficient: 0.12 µm2/s
0.4% Tris NTA, + FtsZ, replicate Exp2
  Diffusion Coefficient: 0.11 µm2/s
0.4% Tris NTA, + FtsZ, replicate Exp3
  Diffusion Coefficient: 0.0041 µm2/s
0.4% Tris NTA, without FtsZ, mean (n: WT 2, R286W 3, SUMO 3)
  Diffusion Coefficient: 0.44 µm2/s
0.4% Tris NTA, without FtsZ, replicate Exp1
  Diffusion Coefficient: 0.31 µm2/s
0.4% Tris NTA, without FtsZ, replicate Exp2
  Diffusion Coefficient: 0.56 µm2/s
0.4% Tris NTA, without FtsZ, replicate Exp3
  Diffusion Coefficient: 0.45 µm2/s
0.6% Tris NTA, + FtsZ, mean (n: WT 5, R286W 5)
  Diffusion Coefficient: 0.0744 µm2/s
0.6% Tris NTA, + FtsZ, replicate Exp1
  Diffusion Coefficient: 0.12 µm2/s
0.6% Tris NTA, + FtsZ, replicate Exp2
  Diffusion Coefficient: 2.02e-8 µm2/s
0.6% Tris NTA, + FtsZ, replicate Exp3
  Diffusion Coefficient: 9.38e-5 µm2/s
0.6% Tris NTA, + FtsZ, replicate Exp4
  Diffusion Coefficient: 0.15 µm2/s
0.6% Tris NTA, + FtsZ, replicate Exp5
  Diffusion Coefficient: 0.11 µm2/s
0.6% Tris NTA, without FtsZ, mean (n: WT 4, R286W 5, SUMO 4)
  Diffusion Coefficient: 0.33 µm2/s
0.6% Tris NTA, without FtsZ, replicate Exp1
  Diffusion Coefficient: 0.43 µm2/s
0.6% Tris NTA, without FtsZ, replicate Exp2
  Diffusion Coefficient: 0.38 µm2/s
0.6% Tris NTA, without FtsZ, replicate Exp3
  Diffusion Coefficient: 0.25 µm2/s
0.6% Tris NTA, without FtsZ, replicate Exp4
  Diffusion Coefficient: 0.30 µm2/s
0.6% Tris NTA, without FtsZ, replicate Exp5
  Diffusion Coefficient: 0.28 µm2/s
0.8% Tris NTA, + FtsZ, mean
  Diffusion Coefficient: 0.04 µm2/s
0.8% Tris NTA, + FtsZ, replicate Exp1
  Diffusion Coefficient: 0.07 µm2/s
0.8% Tris NTA, + FtsZ, replicate Exp2
  Diffusion Coefficient: 0.02 µm2/s
0.8% Tris NTA, + FtsZ, replicate Exp3
  Diffusion Coefficient: 0.0271 µm2/s
0.8% Tris NTA, + FtsZ, replicate Exp4
  Diffusion Coefficient: 0.0336 µm2/s
0.8% Tris NTA, + FtsZ, replicate Exp5
  Diffusion Coefficient: 0.0229 µm2/s
0.8% Tris NTA, + FtsZ, replicate Exp6
  Diffusion Coefficient: 0.06 µm2/s
0.8% Tris NTA, without FtsZ, mean
  Diffusion Coefficient: 0.22 µm2/s
0.8% Tris NTA, without FtsZ, replicate Exp1
  Diffusion Coefficient: 0.17 µm2/s
0.8% Tris NTA, without FtsZ, replicate Exp2
  Diffusion Coefficient: 0.22 µm2/s
0.8% Tris NTA, without FtsZ, replicate Exp3
  Diffusion Coefficient: 0.26 µm2/s
0.8% Tris NTA, without FtsZ, replicate Exp4
  Diffusion Coefficient: 0.17 µm2/s
0.8% Tris NTA, without FtsZ, replicate Exp5
  Diffusion Coefficient: 0.30 µm2/s
0.8% Tris NTA, without FtsZ, replicate Exp6
  Diffusion Coefficient: 0.20 µm2/s
1% Tris NTA, + FtsZ, mean
  Diffusion Coefficient: 0.04 µm2/s
1% Tris NTA, + FtsZ, replicate Exp1
  Diffusion Coefficient: 0.0437 µm2/s
1% Tris NTA, + FtsZ, replicate Exp2
  Diffusion Coefficient: 0.0187 µm2/s
1% Tris NTA, + FtsZ, replicate Exp3
  Diffusion Coefficient: 0.046 µm2/s
1% Tris NTA, + FtsZ, replicate Exp4
  Diffusion Coefficient: 0.0142 µm2/s
1% Tris NTA, + FtsZ, replicate Exp5
  Diffusion Coefficient: 0.03 µm2/s
1% Tris NTA, + FtsZ, replicate Exp6
  Diffusion Coefficient: 0.09 µm2/s
1% Tris NTA, without FtsZ, mean
  Diffusion Coefficient: 0.22 µm2/s
1% Tris NTA, without FtsZ, replicate Exp1
  Diffusion Coefficient: 0.32 µm2/s
1% Tris NTA, without FtsZ, replicate Exp2
  Diffusion Coefficient: 0.13 µm2/s
1% Tris NTA, without FtsZ, replicate Exp3
  Diffusion Coefficient: 0.42 µm2/s
1% Tris NTA, without FtsZ, replicate Exp4
  Diffusion Coefficient: 0.24 µm2/s
1% Tris NTA, without FtsZ, replicate Exp5
  Diffusion Coefficient: 0.09 µm2/s
1% Tris NTA, without FtsZ, replicate Exp6
  Diffusion Coefficient: 0.14 µm2/s
Tris 0.10 %, + FtsZ
  Diffusion Coefficient: 0.17 µm2/s
Tris 0.10 %, without FtsZ
  Diffusion Coefficient: 0.50 µm2/s
Tris 0.40 %, + FtsZ
  Diffusion Coefficient: 0.08 µm2/s
Tris 0.40 %, without FtsZ
  Diffusion Coefficient: 0.44 µm2/s
Tris 0.60 %, + FtsZ
  Diffusion Coefficient: 0.0744 µm2/s
Tris 0.60 %, without FtsZ
  Diffusion Coefficient: 0.33 µm2/s
Tris 0.80 %, + FtsZ
  Diffusion Coefficient: 0.04 µm2/s
Tris 0.80 %, without FtsZ
  Diffusion Coefficient: 0.22 µm2/s
Tris 1.00 %, + FtsZ
  Diffusion Coefficient: 0.04 µm2/s
Tris 1.00 %, without FtsZ
  Diffusion Coefficient: 0.22 µm2/s
Tris 2.00 %, + FtsZ
  Diffusion Coefficient: 0.02 µm2/s
Tris 2.00 %, without FtsZ
  Diffusion Coefficient: 0.035 µm2/s
[…] Tris NTA, + FtsZ, mean (n: WT 2, R286W 3)
  Diffusion Coefficient: 0.14 µm2/s
[…] Tris NTA, + FtsZ, replicate Exp1
  Diffusion Coefficient: 0.34 µm2/s
[…] Tris NTA, + FtsZ, replicate Exp2
  Diffusion Coefficient: 0.000447 µm2/s
[…] Tris NTA, + FtsZ, replicate Exp3
  Diffusion Coefficient: 0.07 µm2/s
[…] Tris NTA, without FtsZ, mean (n: WT 2, R286W 3, SUMO 3)
  Diffusion Coefficient: 0.42 µm2/s
[…] Tris NTA, without FtsZ, replicate Exp1
  Diffusion Coefficient: 0.55 µm2/s
[…] Tris NTA, without FtsZ, replicate Exp2
  Diffusion Coefficient: 0.25 µm2/s
[…] Tris NTA, without FtsZ, replicate Exp3
  Diffusion Coefficient: 0.47 µm2/s
[…] Tris-NTA, + N (FtsNcyto), mean
  Diffusion Coefficient: 4.17E-05 µm2/s
[…] Tris-NTA, + N/Z, Exp. 1
  Diffusion Coefficient: 2.50E-03 µm2/s
[…] Tris-NTA, + N/Z, Exp. 2
  Diffusion Coefficient: 2.00E-05 µm2/s
[…] Tris-NTA, + N/Z, Exp. 3
  Diffusion Coefficient: 1.00E-05 µm2/s
[…] Tris-NTA, + N/Z, mean
  Diffusion Coefficient: 8.43E-04 µm2/s
[…] Tris-NTA, + N, Exp. 1
  Diffusion Coefficient: 7.50E-05 µm2/s
[…] Tris-NTA, + N, Exp. 2
  Diffusion Coefficient: 3.00E-05 µm2/s
[…] Tris-NTA, + N, Exp. 3
  Diffusion Coefficient: 2.00E-05 µm2/s
[…] Tris-NTA, + Z (FtsZ), mean
  Diffusion Coefficient: 0.05 µm2/s
[…] Tris-NTA, + Z, Exp. 1
  Diffusion Coefficient: 0.0229 µm2/s
[…] Tris-NTA, + Z, Exp. 2
  Diffusion Coefficient: 0.04 µm2/s
[…] Tris-NTA, + Z, Exp. 3
  Diffusion Coefficient: 0.08 µm2/s
[…] Tris-NTA, alone, Exp. 1
  Diffusion Coefficient: 0.14 µm2/s
[…] Tris-NTA, alone, Exp. 2
  Diffusion Coefficient: 0.0561 µm2/s
[…] Tris-NTA, alone, Exp. 3
  Diffusion Coefficient: 0.26 µm2/s
[…] Tris-NTA, alone, mean
  Diffusion Coefficient: 0.15 µm2/s
With FtsNcyto, mean ± s.d., p-value 0.01
  Diffusion Coefficient: 8.43 × 10^−4 ± 1.17 × 10^−3 µm^2/s
Without FtsNcyto, mean ± s.d., p-value 0.01
  Diffusion Coefficient: 0.05 ± 0.04 µm^2/s
